Test results taken from the supplement of paper PMC10065799, “High-throughput profiling of sequence recognition by tyrosine kinases and SH2 domains using bacterial peptide display” (eLife, 2023).

What was measured:
[1] = system: AncSZ; assay: phosphorylation enrichment, bacterial display (enrichment ratio); higher = better substrate or ligand; peptides without Tyr show the background
[2] = molecular target: EPHB1 (UniProt P54762); assay: as above
[3] = molecular target: EPHB2 (UniProt P29323); assay: as above
[4] = molecular target: FGFR1 (UniProt P11362); assay: as above
[5] = molecular target: FGFR3 (UniProt P22607); assay: as above
[6] = system: Fer (mouse); assay: as above
[7] = molecular target: Fes (UniProt P07332); assay: as above
[8] = molecular target: Fyn (UniProt P06241); assay: as above
[9] = molecular target: Hck (UniProt P08631); assay: as above
[10] = molecular target: Jak2 (UniProt O60674); assay: as above
[11] = molecular target: MERTK (UniProt Q12866); assay: as above
[12] = system: c-Abl (mouse); assay: as above
[13] = system: c-Src; assay: as above
[14] = molecular target: Grb2 SH2 (UniProt P62993); assay: SH2 binding enrichment of the phosphorylated peptide, bacterial display (enrichment ratio); higher = better substrate or ligand; peptides without Tyr show the background
[15] = molecular target: SHP2-C SH2; assay: as above
[16] = molecular target: c-Src SH2; assay: as above
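Throughout, for SH2 binding enrichment of the phosphorylated peptide, bacterial display: peptide library displayed on the E. coli surface as eCPX fusions, selected cells deep-sequenced, score is each peptide's frequency after selection divided by its frequency in the input.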
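Throughout, for phosphorylation enrichment, bacterial display: 11-residue human phosphosite peptides and single-mutation variants displayed on the E. coli surface, counted by deep sequencing, each peptide's frequency after selection divided by its frequency in the unselected input library; frequency after pTyr selection over input frequency; kinase dosed for 20-30% of maximal phosphorylation in three min.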

Chain of Hck (P08631 whole entry, looked up): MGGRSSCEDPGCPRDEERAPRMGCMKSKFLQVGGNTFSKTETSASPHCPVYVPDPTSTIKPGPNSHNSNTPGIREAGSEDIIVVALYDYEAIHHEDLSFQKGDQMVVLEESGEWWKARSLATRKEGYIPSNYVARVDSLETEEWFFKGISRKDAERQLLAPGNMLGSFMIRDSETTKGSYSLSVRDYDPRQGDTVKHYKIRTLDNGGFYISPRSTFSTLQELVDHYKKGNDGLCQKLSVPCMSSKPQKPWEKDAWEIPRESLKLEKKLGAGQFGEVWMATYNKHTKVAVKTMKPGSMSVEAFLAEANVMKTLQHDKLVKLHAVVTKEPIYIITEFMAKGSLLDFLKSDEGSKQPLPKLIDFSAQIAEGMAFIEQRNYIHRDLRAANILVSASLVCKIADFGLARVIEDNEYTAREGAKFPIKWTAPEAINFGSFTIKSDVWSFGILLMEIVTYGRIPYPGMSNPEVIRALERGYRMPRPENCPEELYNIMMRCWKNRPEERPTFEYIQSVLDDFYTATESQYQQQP
Chain of Grb2 SH2 (P62993 whole entry, looked up): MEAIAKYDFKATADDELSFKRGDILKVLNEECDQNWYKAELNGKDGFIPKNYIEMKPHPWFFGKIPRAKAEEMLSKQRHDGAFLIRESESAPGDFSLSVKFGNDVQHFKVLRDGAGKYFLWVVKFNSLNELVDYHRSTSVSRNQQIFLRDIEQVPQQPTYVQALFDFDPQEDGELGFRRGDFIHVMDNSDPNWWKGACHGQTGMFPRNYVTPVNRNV
Chain of FGFR1 (P11362 whole entry, looked up): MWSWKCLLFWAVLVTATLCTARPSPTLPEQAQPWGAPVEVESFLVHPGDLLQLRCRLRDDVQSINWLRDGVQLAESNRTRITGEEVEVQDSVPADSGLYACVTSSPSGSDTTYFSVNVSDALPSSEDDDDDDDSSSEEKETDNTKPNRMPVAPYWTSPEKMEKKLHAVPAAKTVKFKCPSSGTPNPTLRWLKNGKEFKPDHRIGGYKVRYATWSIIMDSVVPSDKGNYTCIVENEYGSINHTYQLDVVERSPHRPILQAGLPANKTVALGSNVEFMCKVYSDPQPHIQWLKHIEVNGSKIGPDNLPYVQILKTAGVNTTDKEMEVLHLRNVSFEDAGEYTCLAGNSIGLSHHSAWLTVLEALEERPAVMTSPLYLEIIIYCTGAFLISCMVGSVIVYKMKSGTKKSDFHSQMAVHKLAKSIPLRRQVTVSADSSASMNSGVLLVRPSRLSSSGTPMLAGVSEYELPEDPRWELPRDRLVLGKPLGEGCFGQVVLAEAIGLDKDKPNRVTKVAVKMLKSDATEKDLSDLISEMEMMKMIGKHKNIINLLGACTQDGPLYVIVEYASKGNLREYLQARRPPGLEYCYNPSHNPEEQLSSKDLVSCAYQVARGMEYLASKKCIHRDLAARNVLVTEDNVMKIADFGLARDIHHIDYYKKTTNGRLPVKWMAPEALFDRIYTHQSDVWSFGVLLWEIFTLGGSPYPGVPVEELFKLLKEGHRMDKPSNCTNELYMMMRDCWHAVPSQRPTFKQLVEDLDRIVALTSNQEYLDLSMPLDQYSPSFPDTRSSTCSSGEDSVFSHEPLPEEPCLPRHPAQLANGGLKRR
Chain of EPHB2 (P29323 whole entry, looked up): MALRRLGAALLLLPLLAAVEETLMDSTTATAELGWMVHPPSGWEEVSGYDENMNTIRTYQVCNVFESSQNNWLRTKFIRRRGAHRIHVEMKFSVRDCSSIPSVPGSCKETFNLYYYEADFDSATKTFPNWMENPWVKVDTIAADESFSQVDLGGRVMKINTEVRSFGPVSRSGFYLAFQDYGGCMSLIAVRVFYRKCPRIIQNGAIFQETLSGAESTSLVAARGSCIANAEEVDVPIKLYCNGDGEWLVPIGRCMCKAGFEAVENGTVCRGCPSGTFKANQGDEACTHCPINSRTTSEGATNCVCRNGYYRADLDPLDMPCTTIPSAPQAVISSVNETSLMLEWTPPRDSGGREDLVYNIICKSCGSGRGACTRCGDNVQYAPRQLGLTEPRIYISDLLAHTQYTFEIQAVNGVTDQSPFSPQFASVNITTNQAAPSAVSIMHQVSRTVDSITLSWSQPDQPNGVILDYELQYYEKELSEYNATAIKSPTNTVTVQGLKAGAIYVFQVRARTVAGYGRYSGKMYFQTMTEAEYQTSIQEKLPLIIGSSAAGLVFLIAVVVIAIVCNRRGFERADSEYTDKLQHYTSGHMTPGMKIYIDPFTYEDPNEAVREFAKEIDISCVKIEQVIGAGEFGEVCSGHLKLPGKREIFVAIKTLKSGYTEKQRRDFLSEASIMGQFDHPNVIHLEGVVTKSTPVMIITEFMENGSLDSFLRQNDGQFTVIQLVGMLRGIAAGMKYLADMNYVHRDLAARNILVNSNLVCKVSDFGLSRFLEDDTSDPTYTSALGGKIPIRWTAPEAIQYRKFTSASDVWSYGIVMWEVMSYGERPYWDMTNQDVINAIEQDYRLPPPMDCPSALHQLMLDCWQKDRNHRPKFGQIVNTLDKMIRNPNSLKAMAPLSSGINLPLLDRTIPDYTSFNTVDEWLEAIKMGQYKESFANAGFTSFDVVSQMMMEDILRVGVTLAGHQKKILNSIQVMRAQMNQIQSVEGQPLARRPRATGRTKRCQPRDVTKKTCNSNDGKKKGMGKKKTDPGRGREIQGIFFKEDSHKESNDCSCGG
Chain of Fyn (P06241 whole entry, looked up): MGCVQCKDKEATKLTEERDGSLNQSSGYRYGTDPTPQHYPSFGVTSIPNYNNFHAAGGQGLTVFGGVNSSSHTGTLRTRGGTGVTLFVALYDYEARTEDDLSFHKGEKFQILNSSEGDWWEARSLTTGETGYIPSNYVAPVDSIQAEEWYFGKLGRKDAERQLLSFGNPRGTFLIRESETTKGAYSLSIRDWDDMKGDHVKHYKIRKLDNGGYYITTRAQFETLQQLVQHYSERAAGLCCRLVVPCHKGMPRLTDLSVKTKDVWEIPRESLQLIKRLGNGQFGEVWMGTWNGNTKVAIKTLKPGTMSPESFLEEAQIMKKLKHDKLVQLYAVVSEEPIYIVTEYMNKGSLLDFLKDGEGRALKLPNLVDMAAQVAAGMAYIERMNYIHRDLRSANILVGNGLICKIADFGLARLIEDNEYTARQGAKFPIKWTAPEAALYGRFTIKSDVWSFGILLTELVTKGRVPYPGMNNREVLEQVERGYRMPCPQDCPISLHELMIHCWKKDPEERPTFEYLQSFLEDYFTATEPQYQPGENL
Chain of Fes (P07332 whole entry, looked up): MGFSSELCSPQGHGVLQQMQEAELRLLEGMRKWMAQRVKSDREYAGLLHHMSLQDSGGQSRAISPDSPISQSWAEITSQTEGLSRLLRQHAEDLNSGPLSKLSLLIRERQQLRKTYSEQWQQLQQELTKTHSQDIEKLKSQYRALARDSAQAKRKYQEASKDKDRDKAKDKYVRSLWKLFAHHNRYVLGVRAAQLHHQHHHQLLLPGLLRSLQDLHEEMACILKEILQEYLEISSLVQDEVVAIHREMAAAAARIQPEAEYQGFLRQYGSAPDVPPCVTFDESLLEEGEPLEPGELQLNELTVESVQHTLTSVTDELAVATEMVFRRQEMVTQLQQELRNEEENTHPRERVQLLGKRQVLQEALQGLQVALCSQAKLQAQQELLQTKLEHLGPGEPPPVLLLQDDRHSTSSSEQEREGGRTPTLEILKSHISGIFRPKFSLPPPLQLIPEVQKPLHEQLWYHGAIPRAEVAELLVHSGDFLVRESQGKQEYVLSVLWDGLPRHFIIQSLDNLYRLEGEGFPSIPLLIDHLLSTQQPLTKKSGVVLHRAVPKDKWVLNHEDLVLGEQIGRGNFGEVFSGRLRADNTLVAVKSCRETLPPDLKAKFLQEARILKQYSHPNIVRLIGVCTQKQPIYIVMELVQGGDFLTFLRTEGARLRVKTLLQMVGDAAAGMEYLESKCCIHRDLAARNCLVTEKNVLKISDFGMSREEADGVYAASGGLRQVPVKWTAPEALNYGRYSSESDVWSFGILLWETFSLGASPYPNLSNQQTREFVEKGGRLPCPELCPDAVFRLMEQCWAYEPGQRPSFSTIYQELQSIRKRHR
Chain of MERTK (Q12866 whole entry, looked up): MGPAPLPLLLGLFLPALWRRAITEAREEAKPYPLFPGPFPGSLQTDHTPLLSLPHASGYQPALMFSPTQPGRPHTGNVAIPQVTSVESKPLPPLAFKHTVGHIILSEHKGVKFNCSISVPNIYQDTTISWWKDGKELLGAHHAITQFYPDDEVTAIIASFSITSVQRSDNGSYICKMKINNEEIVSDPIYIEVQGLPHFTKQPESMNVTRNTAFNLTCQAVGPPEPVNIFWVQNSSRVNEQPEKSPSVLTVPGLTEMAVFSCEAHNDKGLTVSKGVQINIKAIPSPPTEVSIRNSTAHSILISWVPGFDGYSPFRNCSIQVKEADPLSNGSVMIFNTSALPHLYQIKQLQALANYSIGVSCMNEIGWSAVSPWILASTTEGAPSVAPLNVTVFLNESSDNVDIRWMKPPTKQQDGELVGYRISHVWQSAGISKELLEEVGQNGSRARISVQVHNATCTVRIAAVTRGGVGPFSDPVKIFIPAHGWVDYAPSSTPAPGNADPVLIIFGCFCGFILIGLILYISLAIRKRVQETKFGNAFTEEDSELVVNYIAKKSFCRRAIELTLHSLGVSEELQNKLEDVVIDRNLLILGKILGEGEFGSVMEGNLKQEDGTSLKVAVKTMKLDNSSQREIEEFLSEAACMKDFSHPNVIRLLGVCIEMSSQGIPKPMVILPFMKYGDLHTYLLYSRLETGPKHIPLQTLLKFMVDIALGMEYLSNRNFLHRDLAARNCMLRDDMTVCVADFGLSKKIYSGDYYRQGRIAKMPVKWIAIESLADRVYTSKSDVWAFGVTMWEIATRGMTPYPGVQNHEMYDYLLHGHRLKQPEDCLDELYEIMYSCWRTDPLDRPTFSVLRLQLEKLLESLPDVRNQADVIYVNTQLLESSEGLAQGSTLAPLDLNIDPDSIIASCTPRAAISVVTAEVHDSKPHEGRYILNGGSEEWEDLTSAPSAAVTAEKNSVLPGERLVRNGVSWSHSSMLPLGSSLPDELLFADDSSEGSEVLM

Sequence	phosphorylation enrichment [1]	phosphorylation enrichment [2]	phosphorylation enrichment [3]	phosphorylation enrichment [4]	phosphorylation enrichment [5]	phosphorylation enrichment [6]	phosphorylation enrichment [7]	phosphorylation enrichment [8]	phosphorylation enrichment [9]	phosphorylation enrichment [10]	phosphorylation enrichment [11]	phosphorylation enrichment [12]	phosphorylation enrichment [13]	SH2 binding enrichment [14]	SH2 binding enrichment [15]	SH2 binding enrichment [16]
ISHVAYCVLGK [TRRAP_Y892_R893C]	1.3	0.731	0.79	0.73	0.834	0.952	1.49	0.675	1.09	1.17	1.14	1.03	0.523	0.839	1.53	0.812
IVEFAYNDKAV [PUM3_Y259_I264V_YF]	1.09	0.561	0.632	0.59	0.767	0.462	0.938	0.52	0.573	0.968	0.527	0.705	0.547	0.85	0.787	0.414
IVGLLYRLLTE [SETX_Y1978]	1.29	0.665	0.672	0.699	0.937	0.561	1.35	0.436	0.596	1.13	0.71	0.733	0.539	2.03	1.37	1.89
IVKAFYVRARA [AIPL1_Y268_YF]	1.11	0.5	0.588	0.464	0.688	0.465	1.07	0.433	0.494	0.95	0.424	0.699	0.396	0.872	1.2	0.601
IYRAAYFGVYD [SLC25A4_Y191]	1.15	1.2	1.33	0.554	0.771	0.937	1.21	5.53	5.56	0.982	1.26	0.955	4.49	0.92	1.19	2.12
KASGKYYAMKI [AKT3_Y173]	0.499	0.329	0.411	0.565	0.536	0.335	0.563	0.359	0.529	0.431	0.455	0.518	0.399	1.38	1.21	1.45
KASRKYYAMKI [AKT3_Y173_G171R]	0.416	0.22	0.304	0.481	0.353	0.589	0.476	0.267	0.339	0.484	0.5	0.393	0.257	1.03	0.79	0.652
KDIENHIQDGK [RAD50_Y964_Y964H]	0.69	0.378	0.542	0.41	0.445	0.414	0.684	0.488	0.463	0.621	0.413	0.392	0.446	0.682	0.471	0.41
KEDSAYGSQSV [NFKB2_Y868]	0.978	0.502	0.521	0.428	0.584	0.409	1.07	0.535	0.583	1.11	0.454	0.911	0.502	0.817	0.756	0.558
KEELAYLKKNH [KRT14_Y248]	0.597	0.413	0.422	0.451	0.515	0.375	0.742	0.395	0.541	0.512	0.333	0.528	0.35	0.912	0.761	0.482
KFVKMCDNHQL [MYO9A_Y203_Y203C_YF]	0.483	0.425	0.384	0.429	0.45	0.358	0.603	0.419	0.42	0.513	0.378	0.519	0.441	0.8	0.795	0.587
KGERGYPGTLG [COL4A1_Y348_P352L]	0.597	0.339	0.439	0.375	0.484	0.345	0.505	0.392	0.448	0.475	0.403	0.398	0.337	0.873	0.537	0.421
KHGGNYVPAPK [OSCP1_Y237]	0.7	0.407	0.304	0.512	0.604	0.456	1.05	0.359	0.529	0.692	0.439	0.822	0.491	1.3	1.19	1.08
KIDAKYKKKIK [WDR19_Y1230_E1235K]	0.553	0.38	0.319	0.376	0.834	0.447	0.809	0.305	0.398	0.755	0.368	0.8	0.484	0.597	0.906	0.657
KIIATYRLCSE [DNAH3_Y1586_V1583I]	0.887	0.596	0.51	0.431	0.678	0.477	0.951	0.407	0.462	0.808	0.354	0.693	0.421	0.74	0.611	0.574
KIVYVYVKKRS [DNAI2_Y7_E2K]	1.13	0.577	0.538	0.531	0.654	0.514	1.17	0.515	0.587	1.17	0.507	0.758	0.433	0.745	0.848	0.537
KKFFSYAWPFF [BRDT_Y291_H288Y_YF]	1.07	0.505	0.545	0.515	0.716	0.488	0.991	0.555	0.497	0.92	1.58	0.611	0.497	1.34	1.25	0.982

Sequence	phosphorylation enrichment [1]	phosphorylation enrichment [2]	phosphorylation enrichment [3]	phosphorylation enrichment [4]	phosphorylation enrichment [5]	phosphorylation enrichment [6]	phosphorylation enrichment [7]	phosphorylation enrichment [8]	phosphorylation enrichment [9]	phosphorylation enrichment [10]	phosphorylation enrichment [11]	phosphorylation enrichment [12]	phosphorylation enrichment [13]	SH2 binding enrichment [14]	SH2 binding enrichment [15]	SH2 binding enrichment [16]
KKFVPYFDLFM [IPO5_Y530_E525K_YF]	1.29	0.722	0.707	0.79	0.898	0.53	1.35	0.479	0.571	1.14	0.645	0.773	0.526	1.58	0.831	0.878
KKHIPYRQHKS [CSNK1G2_Y206_E208Q]	2.09	2.12	1.36	1.28	3.67	2.37	3.45	1.08	1.56	4.52	1.07	3.26	1.34	2.07	1.84	1.79
KKMEVYQSIAD [MYBPC3_Y548_L545M]	0.927	0.745	0.627	0.719	0.681	0.508	1.04	0.943	1.47	1.04	0.451	0.764	0.91	0.775	0.576	1.28
KLFFIYTSGTT [SLC27A4_Y245_YF]	1.16	0.633	0.646	0.531	0.813	0.529	1.19	0.435	0.424	1.1	0.398	0.967	0.345	0.801	0.664	0.478
KLKRSYSSPDI [USP8_Y717]	0.552	0.376	0.688	0.365	0.461	0.38	0.613	0.322	0.379	0.524	0.43	0.412	0.396	0.698	0.649	0.413
KLLRLYAVVTR [LYN_Y306_V303L]	0.997	0.982	0.594	0.409	0.644	0.51	1.04	0.451	0.468	1.05	0.581	0.918	0.544	1.12	2.42	1.21
KLNNEYLELNF [MME_Y497_YF]	1.16	0.844	0.715	4.77	3.38	0.552	1.04	0.757	1.06	1.1	0.503	0.778	0.843	0.722	0.751	0.488
KLQKKYGPISS [CYP17A1_Y60_Y64S]	0.381	0.32	0.317	0.338	0.493	0.289	0.553	0.343	0.375	0.364	0.378	0.399	0.364	0.873	0.594	0.554
KMKGDYFRFLA [YWHAG_Y130_YF]	0.722	0.804	0.509	5.05	3.83	0.282	0.689	1.01	0.543	4.54	0.632	0.806	2.11	1.71	1.6	1.22
KNITEYCRHLI [RECQL_Y492_D495H]	0.726	0.51	0.436	0.526	0.533	0.533	0.855	0.433	0.455	0.88	0.43	0.654	0.477	0.812	0.773	0.612
KNKLNYTLPQD [NRAP_Y523]	0.584	0.409	0.436	0.419	0.451	0.39	0.523	0.372	0.406	0.567	0.347	0.468	0.35	0.944	0.834	0.648
KPAFSYTSSST [SIM1_Y356]	1.01	0.467	0.533	0.415	0.475	0.447	0.635	0.578	0.446	0.528	0.417	0.606	0.484	0.944	0.715	0.503
KPIETYFSKNF [PLP1_Y50_L46P_YF]	0.656	0.506	0.497	0.417	0.555	0.379	0.775	0.544	0.436	0.636	0.465	0.53	0.44	0.663	0.568	0.439
KPNMNYDKLSQ [FLI1_Y332_R337Q]	0.495	0.418	0.446	0.468	0.447	0.462	0.578	0.422	0.431	0.612	0.394	0.431	0.478	0.882	0.659	1.15
KPNMNYDKLSR [FLI1_Y332]	0.548	0.494	0.541	0.416	0.4	0.324	0.486	0.342	0.454	0.389	0.337	0.459	0.418	0.895	0.725	1.59
KPPPSYESEEE [BRD4_Y599_T598S]	1.42	0.611	0.761	0.584	0.71	0.557	1.29	0.639	0.601	1.32	0.543	0.957	0.591	1.04	0.517	0.762
